± gives the half width of the 95% confidence interval.
Tests used:
[1] = folding stability dG unfold from chymotrypsin proteolysis; higher = more stable
How it was run: (§1)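 Unfolding free energy was derived, per protease or combined, by relating Bayesian-fitted K50 values from sequencing counts to a sequence-predicted unfolded-state K50 and a shared folded-state K50. The underlying digests exposed cysteine-free mini-proteins under 80 residues, in a PA-tagged cDNA display construct, to trypsin and chymotrypsin at 11 threefold-diluted concentrations and to a no-protease condition. A filter kept only designs with AlphaFold2 dimer inter-PAE above 15.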

[2] = folding stability dG unfold from trypsin proteolysis; higher = more stable
How it was run: as §1

[3] = folding stability dG unfold (combined trypsin and chymotrypsin); higher = more stable
How it was run: as §1

Row | Sequence | folding stability dG unfold [1] [kcal/mol] | folding stability dG unfold [2] [kcal/mol] | folding stability dG unfold [3] [kcal/mol]
1 | SAGGSAGGSAGGMAASVSPSVSYDPNTPVTNTKYTITTDGGVTPTTVVTPVVTPPPSPALSAGGSAGGSAGG [r7_413_JUSTAS] | 0.149 ± 0.11 | -0.148 ± 0.16 | 0.198 ± 0.17
2 | SAGGSAGGSAGGGWAEIEIKITIFVFDPGNMTLFMVTLEPRIEVPPVKRDPDNGKWKPDSAGGSAGGSAGGS [r10_815_TrROS] | 3.92 ± 0.21 | 2.86 ± 0.23 | 3.81 ± 0.42
3 | SAGGGALVLPDPDVPDDLPLVVVDPENGTVTLLHFDRETGRVRARVVRLGDGVPEEEEAVFPVAPDALSAGG [r13_851_TrMRF] | -0.261 ± 0.18 | 0.242 ± 0.11 | 0.078 ± 0.11
4 | SAGGSAMIELEIKLPKEEAEKIAEELAKKLAEELGLEVKVVDVEIEYDPETDEVTIRVKIEVEPEPSAGGSA [r15_70_TrROS_Hall] | 1.98 ± 0.1 | 2.68 ± 0.15 | 2.48 ± 0.24
5 | SAGLRIEPTPDYIKITMPGPNMANEIIKKIQEHFGDIEIDDIKPEPYPNGNNRVTIWIPLKNLPPELLKSAG [r5_857_TrROS] | 1.18 ± 0.085 | 0.895 ± 0.028 | 1.06 ± 0.07
6 | SAGGSAGGSAGGKPKLTLTLTLKRTVKNKNGKTTEKTLTLTLTFDSKEEAENALKELGFSAGGSAGGSAGGS [r10_1062_TrROS_Hall] | 2.92 ± 0.042 | 2.18 ± 0.033 | 2.67 ± 0.099
7 | SAGGSAGGSAGKEYIVRITLPNGKVYEFPGKLEDVVKALPPEYKDAVIEVFDPRTGKRVSSAGGSAGGSAGG [r11_353_TrMRF] | 4.26 ± 0.057 | 2.53 ± 0.049 | 3.84 ± 0.089
8 | SAGGSAGGSAGGKMKPVTIYIKNKDGSTAKLKVINGKVEITFPNGEKKTISAKDLKIYKSAGGSAGGSAGGS [r10_1176_TrROS_Hall] | 1.49 ± 0.13 | 0.631 ± 0.086 | 1.22 ± 0.17
9 | SAGGSAGGSGNSKLTATLTLEFYDPKTGKKIAKIELKPVITTLPNGTAKIDVEYKITFTNEDDSAGGSAGGS [r12_629_TrMRF] | 3.74 ± 0.11 | 2.6 ± 0.14 | 3.39 ± 0.11
10 | KKKILIFITGDNPELAERIRKELEELGYDVEVKVVTTPEEMEKAIEEAEKTDIVIVIHLPPALPLSPELAFS [r1_497_TrMRF] | 0.709 ± 0.12 | 2.58 ± 0.13 | 1.9 ± 0.19
11 | MRLYLVKVEIRREEVDPETGEVREEKLELTVLVREEDEEALEKAEELARKLAEEEGIKEVKVEVVELPAEES [r1_346_TrROS_Hall] | 2.62 ± 0.079 | 2.3 ± 0.09 | 2.47 ± 0.25
12 | SAGGSAGGGWITIPIYIIKMKRTRRDPDGKPKPLDPNDPEDFEVVPPRPFRIPLPPEEAKKLLKSAGGSAGG [r6_219_TrROS] | -0.464 ± 0.43 | -0.542 ± 0.32 | -0.434 ± 0.24
13 | SAKMSPEMRELVERLQDLYNENGYKVKIEMSNKPGMIRINVQMPNPRKKRKIKEALRGDGFPITRVEIYSAG [r14_284_TrROS] | 0.929 ± 0.25 | 1.62 ± 0.077 | 1.36 ± 0.23
14 | SAGMTFTVDVEEETFSETKVIRVPVEYDDPALVDVAAAEIREALGIPESESVTVEREPRRATITIVIPASAG [r14_804_JUSTAS] | 0.954 ± 0.029 | 0.267 ± 0.031 | 0.743 ± 0.051
15 | SAGGSAGGSAGGKPTITVTYDKENNTVTITFPDGSKIEITVPENATEEEVKKLVEELAKSAGGSAGGSAGGS [r10_33_TrROS_Hall] | 3.13 ± 0.11 | 2.62 ± 0.18 | 2.97 ± 0.22
16 | SAGGSAGGSSPSTSSERRIELPGGEEAEVFFYPSSGKILVRFPDREVEYYVEDDGKIVKKDPLSAGGSAGGS [r12_47_JUSTAS] | 0.0525 ± 0.21 | 0.478 ± 0.063 | 0.315 ± 0.13
17 | SAGGSAPVVEYEFVDPGNGRKVKIEVYPHPDGNYQMSIEVYDPGKPVEKIPFWMPPGEMPIEDLLKSAGGSA [r15_147_TrROS] | 0.565 ± 0.24 | 0.528 ± 0.059 | 0.565 ± 0.13
18 | SAGGSAGGSAGGGSVTIRVESPEEAVATAKELLEKLTGAKPEATPLNVVVEEPDGVATVESAGGSAGGSAGG [r7_387_JUSTAS] | -0.721 ± 0.18 | 1.03 ± 0.058 | 0.378 ± 0.13
19 | SAGGSAGGSAGGMITVEYDPSRPVYTVTVTDPTTGKTTVIDVPRDDLEQALALAEALLKSAGGSAGGSAGGS [r10_1117_JUSTAS] | 1.95 ± 0.03 | 0.647 ± 0.046 | 1.67 ± 0.064
20 | SAGGSAGGSAGPFTIMVIERVPPDDPEYDKLHKDNGMPPENMIRIKIFRFKSPEQLKELFSAGGSAGGSAGG [r11_83_TrROS] | 2.12 ± 0.06 | 1.82 ± 0.038 | 2.08 ± 0.086
21 | SAGMVVVKVTLPGPEEALRAAAAAVPVPVSIERDPEKPDVWTATITFPSPELAPVFVEAFAALGAEVVGSAG [r14_745_JUSTAS] | 1.29 ± 0.041 | 1.96 ± 0.041 | 1.69 ± 0.069

Row | Sequence | folding stability dG unfold [1] [kcal/mol] | folding stability dG unfold [2] [kcal/mol] | folding stability dG unfold [3] [kcal/mol]
22 | SAGGSSMEVEIDTSKSTTTYTHPSGEKVATRSLVLTPPSPGDPLRFLNVEFEKLPDGSVVVKKIVGSAGGSA [r2_362_JUSTAS] | -0.142 ± 0.32 | -0.338 ± 0.17 | -0.0806 ± 0.22
23 | SAGGHHHHHHHHIDGKFRSEEEAKKLKEEIEKELRAKGYTDIEVEVEVKVEEPPPRRPRPGSPAYTLGSAGG [r13_6_JUSTAS] | 0.573 ± 0.11 | 1.45 ± 0.16 | 0.955 ± 0.34
24 | SAGGSAGGSMGVTVTSEEDPEVRRVRETIETPSGSVVERDMVLTRPPDGPLLREALSEKVFRPSAGGSAGGS [r12_758_JUSTAS] | -1.18 ± 0.48 | -0.324 ± 0.15 | -0.582 ± 0.28
25 | SKKPDQPPKTVPIEIWVPLPPGQTPEWREMAEEFAEIFADELQQEGFKNVTVEVEPNKDGWVHIDAEVQVSA [r9_865_TrROS] | -0.283 ± 0.21 | 0.821 ± 0.15 | 0.322 ± 0.26
26 | SAGGSAGGKSPEDRQRENMKPVPPIEVVEIRIPIPPGMPIDQAKNIASNLMEHLGVDYVRIEITSAGGSAGG [r6_517_TrROS] | -0.478 ± 0.21 | 0.679 ± 0.038 | 0.297 ± 0.24
27 | SAGGSAKIKIPKSYTAEILDASYDPETKTVTVKIKLFGKPATATIYPDGTVEIDLPNGKKITIPVGSAGGSA [r15_111_TrMRF] | 2.62 ± 0.04 | 1.47 ± 0.083 | 2.27 ± 0.099
28 | SAGGSAGGNWKVEIWPNGEQQEYTIDEIKKQLKNDIPPNYMIRVKGSGKWIPVRELLKEAGIPLSAGGSAGG [r6_937_TrROS] | 0.793 ± 0.11 | 0.382 ± 0.077 | 0.691 ± 0.076
29 | SAGGSAGGSAGGSPVSPKIVTTDPGPNVITTVYYSPEDGKVLSTSTTVVPPLPPGEILTSAGGSAGGSAGGS [r10_1051_JUSTAS] | 0.817 ± 0.21 | 1.45 ± 0.085 | 1 ± 0.32
30 | SAGGMVQISVTEIDPETGLITIEMKFPKGVDDPAKIAAAKAEAEAFAQELEKKLGLPVKVTFTPLPESAGGS [r16_304_JUSTAS] | 1.9 ± 0.039 | 1.95 ± 0.037 | 1.93 ± 0.043
31 | SMKVERERRTIERTLPDGRKVKVEIDLFRPEDGKPWALIKITVTDENGVPTEREILAPAELAEKVIEELFSA [r9_189_TrMRF] | 1.78 ± 0.039 | 2.34 ± 0.055 | 2.08 ± 0.069
32 | MNVTINITVLSPDSSGYTMKATVTFPETPVTTSKEYKTSDPVSAVEEIIKELVDEENLSNATVTTYPSSRLS [r1_399_JUSTAS] | 0.377 ± 0.35 | -0.562 ± 0.22 | 0.0431 ± 0.19
33 | SAGDKGRYHFPFTVTMPPGKPPSQIEDALGKYGWDDVDINREPPPNGETKYTINVHMPKEDLPKLLEAFSAG [r5_376_TrROS] | 0.933 ± 0.26 | 0.895 ± 0.039 | 0.963 ± 0.12
34 | SAGGMVTITTEKMTEEEAEELKKKLPPNTVLLPNPANDTIVPILVPPDPAVLQAVKDALEKELAEAKSAGGS [r16_311_JUSTAS] | 0.662 ± 0.24 | 1.49 ± 0.13 | 1.18 ± 0.15
35 | SAGGSAGGKKIKIEIIYDKENNKLYIYVVDENTKKVYRYEFNKNGKLIKVEPVKEVKPGEVIPLSAGGSAGG [r6_148_TrROS_Hall] | 2.49 ± 0.16 | 1.96 ± 0.15 | 2.32 ± 0.22
36 | SAGSTTRVVELPGNKRVEVEVSTVGDSLTFTITLRDEEGNPVKTLPVAVPDPSLPVEEAIAAAVAAFLASAG [r5_630_JUSTAS] | 3.91 ± 0.029 | 3.15 ± 0.049 | 3.68 ± 0.042
37 | SAGGSAGGSAGGMTAIIVESEEEAKKIAEEKGIKDVKFIPKGKPELLKPDVDKVIKINKKSAGGSAGGSAGG [r7_381_JUSTAS] | 0.348 ± 0.075 | -0.282 ± 0.22 | 0.102 ± 0.33
38 | SAGFKIDDVETEKDPDGEKEITFRYVDPGDGRPWMLNLRINPNGKLTEENPVPFDDFPPGSYWTIRIKSAGG [r19_393_TrROS] | -0.0517 ± 0.41 | 0.636 ± 0.14 | 0.402 ± 0.18
39 | KTLVIHAKTPEEILAAIKEAIKEGKTVVIEMSPELIEALKEAGFEIEKIEEVEEIDGKKIYRVVIEVKPKES [r1_173_TrROS_Hall] | 3.36 ± 0.058 | 1.66 ± 0.084 | 2.87 ± 0.2
40 | SAGGSMGSKKVGEIELEVEIGDEKVKVKVTLYETESPDDSVSLTLDVDVEHPNGKKISKELFEKLFSAGGSA [r2_363_TrMRF] | 2.14 ± 0.033 | 1.15 ± 0.064 | 1.84 ± 0.15
41 | SAGGSGMIPVTVDFPPDVSEEEIKAYVEELEKKGYKVLKVEITTEKDAKGNTLRTVTVVLAPPSLLSAGGSA [r2_442_JUSTAS] | 3.143 ± 0.02 | 3.14 ± 0.048 | 3.15 ± 0.048
42 | SAGGSAGGSAPMEIWVLIDSPEKAKDLAKEIAHELQQSGIKIKVEVEQPPNGYYLVKIRFDSAGGSAGGSAG [r3_211_TrROS] | 1.81 ± 0.11 | 1.89 ± 0.14 | 1.91 ± 0.22

Reference: the supplement of paper PMC12764529
